Consider three variants from IntAct's records for PubMed 17803994.

B1: Cytochrome b-245 light chain (Homo sapiens), P13498 (parent)
chain: MGQIEWAMWANEQALASGLILITGGIVATAGRFTQWYFGAYSIVAGVFVCLLEYPRGKRKKGSTMERWGQKYMTAVVKLFGPFTRNYYVRAVLHLLLSVPAGFLLATILGTACLAIASGIYLLAAVRGEQWTPIEPKPRERPQIGGTIKQPPSNPPPRPPAEARKKPSEEEAAVAAGGPPGGPQVNPIPVTDEVV
partner: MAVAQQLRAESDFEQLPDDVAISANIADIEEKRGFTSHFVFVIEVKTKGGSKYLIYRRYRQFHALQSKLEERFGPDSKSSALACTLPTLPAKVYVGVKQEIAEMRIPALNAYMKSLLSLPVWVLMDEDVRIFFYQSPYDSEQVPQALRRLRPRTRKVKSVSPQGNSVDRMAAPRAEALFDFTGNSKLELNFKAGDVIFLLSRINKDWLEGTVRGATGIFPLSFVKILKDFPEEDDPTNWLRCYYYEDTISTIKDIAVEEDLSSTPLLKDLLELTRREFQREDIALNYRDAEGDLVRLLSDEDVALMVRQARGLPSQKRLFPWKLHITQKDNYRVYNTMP
B2: Cytochrome b-245 light chain (Homo sapiens), P13498 (parent)
chain: B1 chain
B3: Neutrophil cytosol factor 4 (Homo sapiens), Q15080 (parent)
chain: B1 partner
partner: B1 chain

Variants of B1 are the subject of one assay. As to conditions: with ncf4_human NCF4, Q15080.
P156Q: the “effect of a mutation on the interaction” value is “decreasing interaction”.

In another assay the parent is B2. The settings on record: with ncf1_human NCF1, P14598.
Sequence of ncf1_human NCF1, P14598 (P14598 whole entry): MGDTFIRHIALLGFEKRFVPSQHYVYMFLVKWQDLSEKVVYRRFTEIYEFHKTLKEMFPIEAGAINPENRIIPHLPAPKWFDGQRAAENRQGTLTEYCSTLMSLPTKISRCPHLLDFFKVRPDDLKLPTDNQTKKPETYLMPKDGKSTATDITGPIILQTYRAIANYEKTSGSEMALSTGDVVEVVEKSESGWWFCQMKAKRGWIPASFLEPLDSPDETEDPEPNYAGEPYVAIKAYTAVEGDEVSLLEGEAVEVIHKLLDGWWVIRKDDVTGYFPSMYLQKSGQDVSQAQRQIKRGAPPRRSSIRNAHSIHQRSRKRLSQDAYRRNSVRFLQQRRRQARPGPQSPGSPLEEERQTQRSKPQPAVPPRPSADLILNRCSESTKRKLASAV
Turning to P156Q, the “effect of a mutation on the interaction” value is given as “decreasing interaction”.

The variants in the next assay derive from B3. As to conditions: with cy24a_human CYBA.
Turning to W207R, the “effect of a mutation on the interaction” value is listed as “decreasing interaction”.
